From article PMC9720396, “Autoreactivity and broad neutralization of antibodies against HIV-1 are governed by distinct mutations: Implications for vaccine design strategies” (Frontiers in Immunology, 2022)
Where a chain is given by its changes, count along the chain named. In names and notes the source's numbering stands.

T1: host protein UBE3A (Abcam), coupled to Luminex beads, Q05086
T1 chain: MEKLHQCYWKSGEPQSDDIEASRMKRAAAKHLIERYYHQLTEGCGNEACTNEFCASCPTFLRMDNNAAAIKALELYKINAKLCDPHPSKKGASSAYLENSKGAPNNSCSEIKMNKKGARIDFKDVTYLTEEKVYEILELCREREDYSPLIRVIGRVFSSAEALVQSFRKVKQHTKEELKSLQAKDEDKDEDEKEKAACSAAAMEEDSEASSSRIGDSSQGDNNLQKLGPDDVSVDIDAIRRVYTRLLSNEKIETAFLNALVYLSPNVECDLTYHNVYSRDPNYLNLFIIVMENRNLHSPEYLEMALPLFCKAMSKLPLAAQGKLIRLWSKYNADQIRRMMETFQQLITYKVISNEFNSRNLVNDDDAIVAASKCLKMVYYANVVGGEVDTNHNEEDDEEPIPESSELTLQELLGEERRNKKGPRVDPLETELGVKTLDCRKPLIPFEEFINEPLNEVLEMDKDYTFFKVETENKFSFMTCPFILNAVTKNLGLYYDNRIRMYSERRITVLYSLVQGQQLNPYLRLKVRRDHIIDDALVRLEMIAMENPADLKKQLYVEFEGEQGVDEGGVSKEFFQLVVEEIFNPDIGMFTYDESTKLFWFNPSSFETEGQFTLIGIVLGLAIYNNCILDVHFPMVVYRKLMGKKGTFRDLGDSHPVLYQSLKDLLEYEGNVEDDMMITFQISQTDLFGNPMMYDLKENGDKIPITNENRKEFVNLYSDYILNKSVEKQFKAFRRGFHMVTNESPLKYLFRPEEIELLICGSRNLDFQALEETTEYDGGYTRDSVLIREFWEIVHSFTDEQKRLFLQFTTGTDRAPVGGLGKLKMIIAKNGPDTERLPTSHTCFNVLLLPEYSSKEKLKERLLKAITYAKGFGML

T2: UBE3A on the ProtoArray human protein microarray, Q05086
T2 chain: T1 chain

B1: IA2_E64K (antibody, V domains shown)
V domain 1: QVQLQESGPGVVKSSETLSLTCTVSGGSMGGTYWSWLRLSPGKGLEWIGYIFHTGHTNYNPSLKGRVSISVDTSEDQFSLRLRSVTAADTAVYFCASLPRGQLVNAYFRNWGRGTLVSVTA
V domain 2: SYELTQPPSVSVSPGQTATITCSGDKVASKNVCWYQVKPGQSPEVVMYENYKRPSGIPDRFSGSKSGSTATLTIRGTQATDEADYYCQVWDSFSTFVFGSGTQVTV
notes: as the heavy chain of m8 (IA2); as the light chain of m8 (IA2); recombinant IgG; also called the E64K mutant; IA2 E64K mutant; source: Expi293, transiently transfected, purified (Protein A agarose)
B2: CH103 VH E56H mutant (antibody, V domains shown)
V domain 1: B1 V domain 1 with N60S, T115S
V domain 2: SYELTQPPSVSVSPGQTATITCSGASTNVCWYQVKPGQSPEVVIFENYKRPSGIPDRFSGSKSGSTATLTIRGTQAIDEADYYCQVWDSFSTFVFGSGTQVTV
notes: as the heavy chain of m10 (CH103); as the light chain of m10 (CH103); recombinant IgG; also called the VH E56H mutant; source: Expi293, transiently transfected, purified (Protein A agarose)
B3: IA2_N60S (antibody, V domains shown)
V domain 1: B1 V domain 1 with N60S, K64E
V domain 2: B1 V domain 2
notes: as the heavy chain of m8 (IA2); as the light chain of m8 (IA2); recombinant IgG; also called the N60S mutant; IA2 N60S mutant; source: Expi293, transiently transfected, purified (Protein A agarose)
B4: CH103 VL I48M mutant (antibody, V domains shown)
V domain 1: B1 V domain 1 with H56E, N60S, T115S
V domain 2: B2 V domain 2 with I44M
notes: as the heavy chain of m10 (CH103); as the light chain of m10 (CH103); recombinant IgG; source: Expi293, transiently transfected, purified (Protein A agarose)
B5: IA2, inferred late intermediate of the CH103-106 bnAb lineage (antibody, V domains shown)
V domain 1: B1 V domain 1 with K64E
V domain 2: B1 V domain 2
notes: same light chain as IA1; recombinant IgG; source: Expi293, transiently transfected, purified (Protein A agarose)
B6: CH103 VL mutant with the 3-aa insertion (DKV) (antibody, V domains shown)
V domain 1: B1 V domain 1 with H56E, N60S, T115S
V domain 2: B1 V domain 2 with K30T, M47I, Y48F, T80I
notes: as the heavy chain of m10 (CH103); as the light chain of m10 (CH103) with DKV inserted as in CH106; recombinant IgG; also called 3-aa (DKV) insertion; source: Expi293, transiently transfected, purified (Protein A agarose)
B7: CH103 VL I81T mutant (antibody, V domains shown)
V domain 1: B1 V domain 1 with H56E, N60S, T115S
V domain 2: B2 V domain 2 with I77T
notes: as for B4
B8: CH103 VL E45D mutant (antibody, V domains shown)
V domain 1: B1 V domain 1 with H56E, N60S, T115S
V domain 2: B2 V domain 2 with E41D
notes: as the heavy chain of m10 (CH103); as the light chain of m10 (CH103); recombinant IgG; also called the VL E45D mutant; source: Expi293, transiently transfected, purified (Protein A agarose)
B9: CH106, mature CD4 binding site bnAb (antibody, V domains shown)
V domain 1: B1 V domain 1 with T23S, N60S, T115I
V domain 2: B1 V domain 2 with K30V, E44D, D84E
notes: as the heavy chain of m10 (CH103) with the three differences below; as the light chain of m10 (CH103) with the differences below and a 3-aa (DKV) insertion; recombinant IgG; source: Expi293, transiently transfected, purified (Protein A agarose)
B10: CH103 VL D85E mutant (antibody, V domains shown)
V domain 1: B1 V domain 1 with H56E, N60S, T115S
V domain 2: B2 V domain 2 with D81E
notes: as for B4
B11: CH103 VL T31V mutant (antibody, V domains shown)
V domain 1: B1 V domain 1 with H56E, N60S, T115S
V domain 2: B2 V domain 2 with T27V
notes: as for B4
B12: CH103 VH S107I mutant (antibody, V domains shown)
V domain 1: B1 V domain 1 with H56E, N60S, T115I
V domain 2: B2 V domain 2
notes: as for B4
B13: CH103 VL F49Y mutant (antibody, V domains shown)
V domain 1: B1 V domain 1 with H56E, N60S, T115S
V domain 2: B2 V domain 2 with F45Y
notes: as for B4
B14: CH103 mutant containing both the E56H and E45D mutations (antibody, V domains shown)
V domain 1: B1 V domain 1 with N60S, T115S
V domain 2: B2 V domain 2 with E41D
notes: as the heavy chain of m10 (CH103); as the light chain of m10 (CH103); recombinant IgG; the double mutant is named only in the results; also called CH103 VH E56H + VL E45D; source: Expi293, transiently transfected, purified (Protein A agarose)
B15: CH103, mature CD4 binding site bnAb (antibody, V domains shown)
V domain 1: B1 V domain 1 with H56E, N60S, T115S
V domain 2: B2 V domain 2
notes: recombinant IgG; source: Expi293, transiently transfected, purified (Protein A agarose)
B16: CH103 VH T23S mutant (antibody, V domains shown)
V domain 1: B1 V domain 1 with T23S, H56E, N60S, T115S
V domain 2: B2 V domain 2
notes: as for B4
B17: IA1, inferred late intermediate of the CH103-106 bnAb lineage (antibody, V domains shown)
V domain 1: B1 V domain 1 with N60S
V domain 2: B1 V domain 2
notes: as the heavy chain of m8 (IA2) with the two changes below; same light chain as IA2; recombinant IgG; also called 1A1; source: Expi293, transiently transfected, purified (Protein A agarose)

target: T3, Cen B (Homo sapiens (assumed), UniProt P07199); experiment: ELISA; autoantigen ELISA (legend: Athena autoantigen assay); antigens coated at 20 µg/ml overnight at 4°C; Abs in serial dilutions 45 min at RT; HRP anti-human IgG, TMB, 450 nm; details: both partners purified
T3 construct: Cen B autoantigen (centromere protein B) of the autoantigen ELISA
T3 sequence (P07199 whole entry): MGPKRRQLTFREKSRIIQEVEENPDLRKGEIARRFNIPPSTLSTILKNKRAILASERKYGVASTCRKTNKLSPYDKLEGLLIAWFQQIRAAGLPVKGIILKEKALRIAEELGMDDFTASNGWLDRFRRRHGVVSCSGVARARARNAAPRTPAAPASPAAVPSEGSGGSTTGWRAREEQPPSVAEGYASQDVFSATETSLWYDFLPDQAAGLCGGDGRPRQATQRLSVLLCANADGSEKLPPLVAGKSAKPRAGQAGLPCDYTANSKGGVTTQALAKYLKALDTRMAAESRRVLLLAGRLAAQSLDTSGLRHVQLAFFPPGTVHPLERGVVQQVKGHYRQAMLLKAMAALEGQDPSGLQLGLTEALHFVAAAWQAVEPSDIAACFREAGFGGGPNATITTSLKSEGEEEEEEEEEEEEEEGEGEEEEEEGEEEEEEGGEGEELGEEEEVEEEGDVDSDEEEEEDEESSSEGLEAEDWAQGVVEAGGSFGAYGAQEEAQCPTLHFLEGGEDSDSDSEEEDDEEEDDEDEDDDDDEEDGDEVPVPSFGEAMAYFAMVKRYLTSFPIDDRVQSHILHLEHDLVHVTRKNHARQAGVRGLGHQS

| Binder | binding result |
| --- | --- |
| B1 | binds |
| B2 | binds |

Target: T1, host protein UBE3A (Abcam), coupled to …
Experiment: Luminex bead assay
Details: chain shown with the change; left panel; highest antibody concentration plotted, est. 2000 ng/ml; parent: est. 12; read off a plot

| Binder | response |
| --- | --- |
| B1 | 2200 gMFI |
| B3 | 8.5 gMFI |

target: T4, host protein UBE3A (Abcam), coupled to Luminex beads (Homo sapiens, UniProt Q05086); experiment: Luminex bead-based binding assay; UBE3A (Abcam) covalently linked to carboxylated beads; Abs serially diluted 1:3 from 2 µg/ml in PBS with 0.05% NaN3, 0.05% Tween 20, 1% BSA and 1% milk; 2 hours at room temperature; detected with PE goat anti-human IgG; details: both partners purified
T4 construct: UBE3A, host protein; bought from Abcam (printed there as UBE34); also called UBE34; source: bought: Abcam

| Binder | fold reduction of binding against parental CH103 | binding result |
| --- | --- | --- |
| B4 | ~10 fold | – |
| B5 | – | no binding (tested: 2 µg/ml) |
| B6 | – | binds |
| B7 | – | binds |
| B8 | – | binds |
| B9 | – | binds |
| B10 | – | binds |
| B11 | – | binds |
| B12 | – | binds |
| B13 | ~10 fold | – |
| B3 | – | no binding (tested: 2 µg/ml) |
| B14 | – | binds |
| B2 | – | binds |
| B15 | – | binds |
| B16 | – | binds |

target: host proteins on the ProtoArray (9,400 human proteins) (human); experiment: peptide or protein array; ProtoArray (Invitrogen) with 9,400 human proteins, in duplicate; 2 µg/ml recombinant Ab, 1.5 hours at 4°C; detected with Alexa Fluor 647 anti-human IgG; compared with the control Ab 151K; details: not given

| Binder | polyreactivity index (PI) |
| --- | --- |
| B1 | 0.14 |
| B17 | 0.64 |

Target: T2, UBE3A on the ProtoArray human protein …
Experiment: ProtoArray protein array
Details: chain shown with the change; red circle = UBE3A; x coordinate of the circle; parent: est. 45; read off a plot

| Binder | response |
| --- | --- |
| B3 | 45 MFI |

target: T5, UBE3A on the ProtoArray human protein microarray (Homo sapiens, UniProt Q05086); experiment: peptide or protein array; ProtoArray (Invitrogen) with 9,400 human proteins, in duplicate; 2 µg/ml recombinant Ab, 1.5 hours at 4°C; detected with Alexa Fluor 647 anti-human IgG; compared with the control Ab 151K; details: both partners purified
T5 construct: UBE3A, one of the 9,400 human proteins on the ProtoArray; source: bought: Invitrogen ProtoArray

| Binder | fold higher binding than Abs without E64K |
| --- | --- |
| B1 | ~10 fold |
| B17 | ~10 fold |
